Assay results reported in US20260022175A1 (Chugai, published 2026).

What was measured:
[1] = biological target: T1, hFcγRIIaH on hFcγRIIaH-expressing Jurkat cells (human, UniProt P12318 34-317); test: cell-based or functional assay
T1 sequence (looked up): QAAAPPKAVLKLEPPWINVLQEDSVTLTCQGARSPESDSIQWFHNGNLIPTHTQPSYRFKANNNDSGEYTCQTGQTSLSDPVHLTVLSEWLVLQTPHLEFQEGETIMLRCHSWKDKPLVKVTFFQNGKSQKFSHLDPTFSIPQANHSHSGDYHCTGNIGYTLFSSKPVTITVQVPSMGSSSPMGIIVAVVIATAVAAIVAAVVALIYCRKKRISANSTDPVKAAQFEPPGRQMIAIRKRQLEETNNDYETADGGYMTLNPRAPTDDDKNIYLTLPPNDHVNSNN

[2] = biological target: T2, human C1q protein (Calbiochem) (human, UniProt P02745 23-245; P02746 28-253; P02747 29-245); test: ELISA: antibody coated on the plate at the varied concentration, hC1q 3 µg/mL added, detected with HRP-conjugated anti-hC1q antibody, O.D (450-690nm)
T2 construct: bought; also called hC1q
T2 sequence (P02745 23-245 limits assumed, chain 1 of 3): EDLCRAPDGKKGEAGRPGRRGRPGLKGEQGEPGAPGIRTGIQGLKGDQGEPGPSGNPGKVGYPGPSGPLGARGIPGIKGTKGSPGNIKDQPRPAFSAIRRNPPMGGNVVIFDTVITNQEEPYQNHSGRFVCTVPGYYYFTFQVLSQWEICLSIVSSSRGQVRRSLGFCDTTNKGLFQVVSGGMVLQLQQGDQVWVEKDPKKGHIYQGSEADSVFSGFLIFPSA
T2 sequence (P02746 28-253 limits assumed, chain 2 of 3): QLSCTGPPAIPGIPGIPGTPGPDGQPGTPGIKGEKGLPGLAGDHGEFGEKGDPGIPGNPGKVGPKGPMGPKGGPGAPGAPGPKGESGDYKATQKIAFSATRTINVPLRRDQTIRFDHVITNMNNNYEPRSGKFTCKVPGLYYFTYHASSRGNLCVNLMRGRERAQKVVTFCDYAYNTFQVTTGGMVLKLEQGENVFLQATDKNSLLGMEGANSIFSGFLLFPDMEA
T2 sequence (P02747 29-245 limits assumed, chain 3 of 3): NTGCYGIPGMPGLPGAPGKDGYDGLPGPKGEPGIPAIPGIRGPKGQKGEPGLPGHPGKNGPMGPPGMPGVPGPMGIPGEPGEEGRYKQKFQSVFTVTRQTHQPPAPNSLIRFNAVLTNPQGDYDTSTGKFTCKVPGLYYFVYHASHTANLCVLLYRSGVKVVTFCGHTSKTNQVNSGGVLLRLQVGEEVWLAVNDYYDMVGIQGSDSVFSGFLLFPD
Method: The antigen used was a human C1q protein (hC1q).
First, a 96-well maxisorp plate (Thermo fisher) was coated at 4° C. overnight with 50 μL of solutions containing each antibody prepared at 30, 10, 3, 1, 0.3, 0.1, and 0.03 μg/mL in PBS. Each well of the plate was washed with Wash buffer to remove the antibody not bound to the plate, and then the wells were blocked with 200 μL of Blocking/dilution Buffer at room temperature for 2 hours or longer. After the Blocking/dilution Buffer was removed from each well, hC1q (Calbiochem) prepared such that the final concentration was 3 μg/mL in Blocking/dilution Buffer was added at 50 μL per well. The plate was then allowed to stand at room temperature for 1 hour to allow hC1q to bind to the antibody within each well. After washing with Wash Buffer, 50 μL of an HRP-conjugated anti-hC1q antibody (AbDSerotec) diluted with Blocking/dilution Buffer was added to each well, and the plate was incubated while standing for 1 hour. After washing with Wash Buffer, TMB single solution (Invitrogen) was added. The color development reaction of the solution in each well was stopped by addition of Stop Buffer, and then the developed color was measured by absorbance at 450 nm and 690 nm.

[3] = biological target: T3, human FcγRIIb extracellular domain (human, UniProt P31994 43-217); test: SPR Biacore 8K+, antibody captured, FcγR as analyte, steady state affinity model
T3 construct: extracellular domain; also called hFcγR IIb
T3 sequence (looked up): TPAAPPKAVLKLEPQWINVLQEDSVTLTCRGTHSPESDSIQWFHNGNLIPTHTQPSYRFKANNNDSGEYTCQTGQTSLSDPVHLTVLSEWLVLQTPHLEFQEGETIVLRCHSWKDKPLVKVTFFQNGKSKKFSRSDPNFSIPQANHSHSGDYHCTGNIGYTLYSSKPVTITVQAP

[4] = biological target: T4, human FcγRIIIa F extracellular domain (human, UniProt P08637 17-208); test: SPR Biacore 8K+; KD for FcγRIIb divided by KD for this FcγR;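 also: antibodies captured on an anti-human Fab kappa SA chip with soluble human FcγR ectodomains flowed over, FcγRIIb KD from steady-state fit, other FcγR KD from Langmuir model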
T4 construct: extracellular domain; also called hFcγR IIIa F
T4 sequence (P08637 17-208): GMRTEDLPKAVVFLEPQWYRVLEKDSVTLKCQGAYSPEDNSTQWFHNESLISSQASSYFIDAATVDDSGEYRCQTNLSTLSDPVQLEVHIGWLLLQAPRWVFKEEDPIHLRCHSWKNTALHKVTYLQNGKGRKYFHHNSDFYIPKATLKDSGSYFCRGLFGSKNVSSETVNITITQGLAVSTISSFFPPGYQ

[5] = biological target: T5, human FcγRIIIa V extracellular domain (human, UniProt P08637 17-208); test: as above
T5 construct: extracellular domain; also called hFcγR IIIa V
T5 sequence (P08637 17-208 F176V limits assumed): as the sequence (P08637 17-208) above, with F160V counted along it

[6] = biological target: T6, human FcγRIIa H extracellular domain (human, UniProt P12318 34-217); test: as above
T6 construct: extracellular domain; also called hFcγR IIa H
T6 sequence (looked up): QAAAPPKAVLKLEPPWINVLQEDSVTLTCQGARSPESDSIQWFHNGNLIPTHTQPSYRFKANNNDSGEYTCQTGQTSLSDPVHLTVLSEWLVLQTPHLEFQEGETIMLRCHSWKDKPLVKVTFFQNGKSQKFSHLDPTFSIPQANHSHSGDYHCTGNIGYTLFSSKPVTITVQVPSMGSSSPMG

[7] = biological target: T7, human FcγRIIa R extracellular domain (human, UniProt P12318 34-217); test: as above
T7 construct: extracellular domain; also called hFcγR IIa R
T7 sequence (looked up): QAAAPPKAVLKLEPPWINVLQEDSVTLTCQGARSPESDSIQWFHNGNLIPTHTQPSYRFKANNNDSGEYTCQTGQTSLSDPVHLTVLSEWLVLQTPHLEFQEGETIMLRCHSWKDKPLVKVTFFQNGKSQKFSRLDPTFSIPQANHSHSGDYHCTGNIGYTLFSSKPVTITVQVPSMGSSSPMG

[8] = biological target: T4, human FcγRIIIa F extracellular domain; test: SPR Biacore 8K+, antibody captured, FcγR as analyte, 1:1 Langmuir model;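 also: antibodies captured on a streptavidin chip through a biotinylated anti-human Fab kappa reagent, with FcγR extracellular domains injected in pH 7.4 phosphate buffer at 25 °C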
Method: (§1) The interaction between the produced antibodies and human FcγRs was analyzed using Biacore 8K+ by the method below. For the running buffer, 50 mM Na-Phosphate, 150 mM NaCl, and 0.05% Tween20 (pH 7.4) was used, and measurement was performed at 25° C. The sensor chip used was a Series S SA chip (GE Healthcare) onto which CaptureSelect Human Fab-kappa Kinetics Biotin Conjugate (Thermo Fisher Scientific) was immobilized. An antibody of interest was captured onto this chip, and each FcγR diluted with the running buffer was allowed to interact with it. The chip was regenerated using 10 mM Glycine-HCl (pH 1.5), and repeatedly used to capture antibodies and perform measurement. The dissociation constants KD (mol/L) of each antibody for FcγRs were calculated using Biacore Insight Evaluation Software, with a steady state affinity model for the dissociation constant for FcγRIIb and a 1:1 Langmuir binding model for the dissociation constants for the other FcγRs (Table 48).

[9] = biological target: T8, human FcγRIa extracellular domain (human, UniProt P12314 16-292); test: as above
T8 construct: extracellular domain; also called hFcγR Ia; hFcγRIa
T8 sequence (P12314 16-292): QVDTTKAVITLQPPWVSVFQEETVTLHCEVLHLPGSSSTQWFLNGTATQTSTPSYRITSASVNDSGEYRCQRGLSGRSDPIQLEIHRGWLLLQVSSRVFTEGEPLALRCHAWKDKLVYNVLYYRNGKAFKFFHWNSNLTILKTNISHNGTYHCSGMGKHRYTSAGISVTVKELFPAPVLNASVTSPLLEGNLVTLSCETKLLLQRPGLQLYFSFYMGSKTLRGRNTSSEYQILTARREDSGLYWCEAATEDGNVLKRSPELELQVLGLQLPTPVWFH
Method: as §1

[10] = biological target: T5, human FcγRIIIa V extracellular domain; test: as above
Method: as §1

[11] = biological target: T6, human FcγRIIa H extracellular domain; test: as above
Method: as §1

[12] = biological target: T7, human FcγRIIa R extracellular domain; test: as above
Method: as §1

[13] = biological target: hFcγRIIIaV on hFcγRIIIaV-expressing Jurkat cells (human, UniProt P08637 17-254); test: cell-based or functional assay
hFcγRIIIaV on hFcγRIIIaV-expressing Jurkat cells, sequence (P08637 17-254, form in doubt): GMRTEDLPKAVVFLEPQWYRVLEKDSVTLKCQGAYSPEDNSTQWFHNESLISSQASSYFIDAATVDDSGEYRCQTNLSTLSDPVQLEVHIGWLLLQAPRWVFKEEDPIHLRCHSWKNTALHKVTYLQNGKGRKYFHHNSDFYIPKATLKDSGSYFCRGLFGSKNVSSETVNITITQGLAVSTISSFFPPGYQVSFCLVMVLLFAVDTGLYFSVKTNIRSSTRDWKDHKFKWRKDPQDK

[14] = biological target: T4, human FcγRIIIa F extracellular domain; test: SPR Biacore 8K+; KD of G1d divided by KD of this antibody;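 also: antibodies captured on an anti-Fab-kappa streptavidin chip, soluble FcγR ectodomains flowed over, KD by steady-state fit for FcγRIIb and Langmuir kinetic model for the other receptors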
[15] = biological target: T8, human FcγRIa extracellular domain; test: as above
[16] = biological target: T5, human FcγRIIIa V extracellular domain; test: as above
[17] = biological target: T3, human FcγRIIb extracellular domain; test: as above
[18] = biological target: T6, human FcγRIIa H extracellular domain; test: as above
[19] = biological target: T7, human FcγRIIa R extracellular domain; test: as above

B1: H240-Kn496/L73-k0//H240-Hl516/L73-k0 (antibody, human IgG1, kappa)
heavy 1: QDQLVQSGAEVKKPGASVKVSCKASGFNIKDTYIQWVRQAPGQGLEWMGRIDPLRKQTKYREKFEGRVTITADTSTNTAYMELSSLRSEDTAVYYCVRSGREFDYWGQGTLVTVSSASTKGPSVFPLAPSSKSTSGGTAALGCLVKDYFPEPVTVSWNSGALTSGVHTFPAVLQSSGLYSLSSVVTVPSSSLGTQTYICNVNHKPSNTKVDKKVEPKSCDKTHTCPPCPAPEFQWGPMVFLFPPKPKDVLMISRTPEVTCVVVDVSDEEPEVKFNWYVDGVEVHNAKTKPREEQYNATYRVVSVLPVLHQDWLNGKEYKCKVSNKALPAPIEKTISKAKGQPREPQVCTLPPSRDELTKNQVSLWCLVKGFYPSDIAVEWESNGQPENNYKTTPPVLDSDGSFFLYSKLTVDKSRWQQGNVFSCSVMHEALHNHYTQKSLSLSP
heavy 2: QDQLVQSGAEVKKPGASVKVSCKASGFNIKDTYIQWVRQAPGQGLEWMGRIDPLRKQTKYREKFEGRVTITADTSTNTAYMELSSLRSEDTAVYYCVRSGREFDYWGQGTLVTVSSASTKGPSVFPLAPSSKSTSGGTAALGCLVKDYFPEPVTVSWNSGALTSGVHTFPAVLQSSGLYSLSSVVTVPSSSLGTQTYICNVNHKPSNTKVDKKVEPKSCDKTHTCPPCPAPELLGGPSVFLFPPKPKDVLMISRTPEVTCVVVDVSHEEPEVKFNWYVDGVEVHNAKTKPREEQYNATYRVVSVLPVLHQDWLNGKEYKCKVSNDALPAPIEETISKAKGQPREPQVYTLPPSRCELTKNQVSLSCAVKGFYPSDIAVEWESNGQPENNYKTTPPVLDSDGSFFLVSKLTVDKSRWQQGNVFSCSVMHEALHNHYTQKSLSLSP
light: DIQMTQSPSSLSASVGDRVTITCRASQDIHKYIAWYQQKPGQAPRLLIQYTSTLQPGVPSRFSGSGSGTDYTFTISSLQPEDIATYYCLQYEQLRTFGGGTKVEIKRTVAAPSVFIFPPSDEQLKSGTASVVCLLNNFYPREAKVQWKVDNALQSGNSQESVTEQDSKDSTYSLSSTLTLSKADYEKHKVYACEVTHQGLSSPVTKSFNRGEC
notes: also called EGL-ART11; ART11
- EC50 value (hFcγRIIaH ADCP Reporter Bioassay, Hepa1-6/hEREG target cells) [1]: 0.0367 µg/mL
- binding result [2]: binds
- Kd [3]: 14600 nM
- A/I ratio (KD for FcγRIIb divided by KD for each FcγR) [4]: 694
- A/I ratio (KD for FcγRIIb divided by KD for each FcγR) [5]: 3970
- A/I ratio (KD for FcγRIIb divided by KD for each FcγR) [6]: 63.3
- A/I ratio (KD for FcγRIIb divided by KD for each FcγR) [7]: 11.5
- Kd [8]: 21 nM
- Kd [9]: 0.0381 nM
- Kd [10]: 3.67 nM
- Kd [11]: 231 nM
- Kd [12]: 1270 nM
- EC50 value (hFcγRIIIaV ADCC Reporter Bioassay, Hepa1-6/hEREG target cells) [13]: 0.000413 µg/mL
- Relative value to KD between G1d and hFcgRs [14]: 141
- Relative value to KD between G1d and hFcgRs [15]: 2.4
- Relative value to KD between G1d and hFcgRs [16]: 97.5
- Relative value to KD between G1d and hFcgRs [17]: 0.7
- Relative value to KD between G1d and hFcgRs [18]: 4.9
- Relative value to KD between G1d and hFcgRs [19]: 1.3
